Test [1] deals with T1, JCV VP1 VLP (JC virus (JCV), Mad-1 strain, UniProt P03089 1-354).
T1 construct: also called JCV VP1 VLPs; JCV VP1 (coating with reassociation buffer)
In words: direct ELISA, plate coated with antigen at 5 µg/ml in reassociation buffer (VLP); EC50 by non-linear regression (GraphPad Prism).

The target in test [2] is T2, JCV VP3 protein (Bioclone Inc) (JC virus (JCV), UniProt P03095 120-344).
T2 sequence: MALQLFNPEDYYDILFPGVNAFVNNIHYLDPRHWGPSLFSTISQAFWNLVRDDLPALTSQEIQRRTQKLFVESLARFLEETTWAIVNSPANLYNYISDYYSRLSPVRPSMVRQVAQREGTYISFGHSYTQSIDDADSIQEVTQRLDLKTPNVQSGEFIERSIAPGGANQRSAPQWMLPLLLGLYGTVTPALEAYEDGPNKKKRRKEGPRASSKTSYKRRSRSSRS
As to the kind of experiment: direct ELISA, antigens coated at 1 µg/mL; bar groups labelled 100 nM, 20 nM, 4 nM, 0.8 nM. (In general: In an ELISA, binding on a coated surface is turned into a signal by an enzyme label.)

The target of test [3] is T3, JCV VP2 protein (Bioclone Inc) (JC virus (JCV), UniProt P03095 1-344).
T3 sequence (looked up): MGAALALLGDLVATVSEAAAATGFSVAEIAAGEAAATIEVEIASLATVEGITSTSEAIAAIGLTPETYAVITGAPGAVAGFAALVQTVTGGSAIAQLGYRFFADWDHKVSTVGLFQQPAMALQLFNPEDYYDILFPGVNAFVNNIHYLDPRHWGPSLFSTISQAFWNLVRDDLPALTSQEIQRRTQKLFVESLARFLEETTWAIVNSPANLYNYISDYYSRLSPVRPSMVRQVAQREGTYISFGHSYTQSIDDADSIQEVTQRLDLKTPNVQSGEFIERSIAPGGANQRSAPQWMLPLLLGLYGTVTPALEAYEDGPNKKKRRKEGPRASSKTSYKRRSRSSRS
The description is as above.

In the next test the target is T4, BSA (Sigma-Aldrich) (bovine, UniProt P02769 25-607).
T4 construct: also called bovine serum albumin
T4 sequence (P02769 25-607 limits assumed): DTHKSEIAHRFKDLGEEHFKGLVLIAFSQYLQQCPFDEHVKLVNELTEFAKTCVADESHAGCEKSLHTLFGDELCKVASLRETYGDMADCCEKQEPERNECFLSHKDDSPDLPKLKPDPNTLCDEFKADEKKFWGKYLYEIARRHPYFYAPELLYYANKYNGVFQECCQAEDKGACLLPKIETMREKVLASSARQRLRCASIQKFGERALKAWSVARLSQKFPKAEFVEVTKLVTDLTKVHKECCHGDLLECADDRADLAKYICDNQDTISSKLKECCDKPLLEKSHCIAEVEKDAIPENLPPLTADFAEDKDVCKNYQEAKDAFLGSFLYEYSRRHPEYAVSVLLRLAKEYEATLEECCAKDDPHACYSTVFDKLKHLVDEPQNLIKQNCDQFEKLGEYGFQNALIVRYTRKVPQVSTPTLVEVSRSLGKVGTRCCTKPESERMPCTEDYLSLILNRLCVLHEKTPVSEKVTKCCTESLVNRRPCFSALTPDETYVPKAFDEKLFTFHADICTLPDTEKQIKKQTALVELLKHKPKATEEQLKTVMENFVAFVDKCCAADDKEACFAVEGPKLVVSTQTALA
In words: direct ELISA.

Test [4] concerns the target JCV (JC virus produced by infected SVG-A cells) (JC virus (JCV), UniProt P03089 1-354). In words: cell-based or functional assay.
The target in test [5] is T1, JCV VP1 VLP. In words: direct ELISA, plate coated with antigen at 5 µg/ml in reassociation buffer (VLP); EC50 by non-linear regression (GraphPad Prism). The source holds these as a separate data set.
Test [6] addresses T1, JCV VP1 VLP. As to the kind of experiment: direct ELISA.
For test [7], the target named is T5, VP1 GCN (N74S R75K T128A L158V K345R Q350deletion T351deletion) (JC virus (JCV), UniProt P03089 1-354).
T5 construct: whole, on cells
In words: flow cytometry, transfected 293TT cells. (In general: A flow cytometer gives signals particle by particle.)

B1: NI-307.19F8 (antibody, V domains shown)
VH: EVQLVESGGGLVKPGGSLRLSCAASGFTFSSYYMNWVRQAPGKGLEWVSSISSSSSYIYYADSVKGRFTISRDNAKNSLYLQMNSLTAEDTAVYYCARDPRLQLWFMFDYWGQGTLVTVSS
VL: QPVLTQPPSASASLGASVTLTCTLSSGYSNYKVDWYQQRPGEGPRFVMRVGTGGIVGSKGDGIPDRFSVLGSGLNRYLTIKDIQEEDESDYHCGADHGSGSNFVYVFGTGTKVTVL
For orientation: EC50 means the concentration giving half of the maximal effect. A low value points to greater potency. Turning to B1, in the test with JCV VP1 VLP [1], it took 6.68 nM to reach a half-maximal effect (EC50). The binding result in test [2] is reported as “no binding (tested: 100 nM)”; in test [3], “no binding (tested: 100 nM)”; with BSA (Sigma-Aldrich), “no binding”.

B2: NI-307.61D11 (antibody, V domains shown)
VH: EVQLVQSGAEVKKPGASVKVSCKTSGYTFIGHYMQWVRQVPGQGFEWMGWINPNTGTTKYALKFKDRVTVTRDTSTATVYMEFHGLTSDDTAVYYCARASAYQLANYDYWGQGTLVTVSS
VL: QSALTQPASVSGSPGQSITISCAGTSNDVGDDDFVSWYQHQPGKAPRLMIYEVTNRPSGVSTRFSGSKSGNTASLTISGLQAEDEGDYYCMSYTKNSALGYVFGGGTKVTVL
With B2, the concentration for a half-maximal effect (EC50) in the test with JCV VP1 VLP [1] was 17.7 nM. Further, the binding result in the test with BSA (Sigma-Aldrich) is “no binding”.

B3: NI-307.18F4A (antibody, V domains shown)
VH: EVQLVESGGGLVKPGGSLRLSCAASGFTFTNYYMTWVRQAPGKGLEWVSYITGGGSTTYYADSVTGRFTISRDNAKNSLYLQMSSLRVEDTAVYYCARGRGYPDNWFDPWGQGTLVTVSS
VL: SYVLTQPPSVSVSPGQTARITCSGDALPKQYVYWYQQKPGQAPVLMIYKDAERPSGIPDRFSGSSSGTTVTLTISGVQAEDEADYYCQSTDISGAAVVFGGGTKLTVL
Take B3: the response in the test with JCV VP1 VLP [1] was half-maximal at 55 nM (EC50). The binding result in the test with BSA (Sigma-Aldrich) is recorded as “no binding”.

B4: NI-307.98D3 (antibody, V domains shown)
VH: EVQLVESGGGVVQPGRSLRLSCAASGFTFSSSAMHWVRQAPGKGLEWVAVISYDGNNQLYADSVKGRLTISRDNSKNALYLQLNSLRTEDTAVYFCARDGGGYSFGTYFFDFWGQGTLVTVSS
VL: DIQMTQSPSSLSASVGERVTITCRASQRISNYLNWYQQKPGKAPKLLIYAASTLQSGVPSRFSGSGSGTDFTLTISSLQPEDFATYYCQQSYSSPPTFGPGTKVDIK
On to B4, for which, in test [4], the “IC50 of neutralization of the JCV infection of SVG-A cells” value was 0.8 ng/mL. In addition, the response with JCV VP1 VLP [5] was half-maximal at 0.00057 nM (EC50).

B5: NI-307.26E10 (antibody, V domains shown)
VH: EVQLVESGGGLVLPGGSLRLSCAVSGFTVRNEYMRWARQAPGRGLEWVSVIYRDGQTHHADTVKGRFDVSKDTSKNTMYLQMHNLRVDDTAIYYCARGHYGPWGQGTLVTVSS
VL: DIQMTQSPSTLPASVGDRVTITCRASQSINNWLAWYQQKPGKAPNLLIYDASNLETGVPSRFSGSGSGTEFTLTISSLQPDDFATYYCQQYNSHSHTWTFGQGTKVEIK
For the molecule B5, the values for the binding result (in test [2]; in test [3]; with BSA (Sigma-Aldrich)) were “no binding (tested: 100 nM)”, “no binding (tested: 100 nM)” and “no binding”, respectively. Besides, in the test with JCV VP1 VLP [6], the midpoint of the response, the EC50, lay at 14.9 nM.

B6: NI-307.43A11 (antibody, V domains shown)
VH: QVQLQESGPGLVKPSGTLSLTCAVTGGSISSSNWWSWVRQSPGKGLEWIGEIHHDGNLNYNPLLKSRVSMSLDRSKNQFSLKLTSVTAADTAVYYCARWDFFFDSSYYIRGFDLWGQGTMVTVSS
VL: ETTLTQSPGTLSLSPGERVTLSCRASQSVDRNYLAWYQQKPGQSPRLLIYSASRRATGIPDRFSGSGSGTDFTLTISRLEPEDFVVYYCQQYGGSPPITFGQGTRLEIK
In the case of B6, the concentration for a half-maximal effect (EC50) in the test with JCV VP1 VLP [6] is 6.15 nM. For the same molecule, in the test with BSA (Sigma-Aldrich), the binding result is listed as “no binding”.

B7: NI-307.25G10 (antibody, V domains shown)
VH: EVQLVESGGGLVQPGGSLRLSCVASGIIFKDYDFHWVRQVKEKGLEWVSAIGTAGDPYYAASVKGRFTVSRENGKNSVYLRMNNVGAGDTALYYCTSGNYFDRGSFRPSAFDMWGQGTMVTVSS
VL: EIVLTQSPGTLSLSPGERATLSCWASQSVSSNYLAWYQHKPGQAPRLLIFRASRRATDIPERFSAGGSGTDFTLTISRLEAEDSAVYYCQEYGSAPPASITFGQGTRLEIK
B7: the binding result in test [2] is given as “no binding (tested: 100 nM)”; in test [3], “no binding (tested: 100 nM)”; with BSA (Sigma-Aldrich), “no binding”. Moreover, it took 0.509 nM to reach a half-maximal effect with JCV VP1 VLP [6] (EC50).

B8: NI-307.58C7 (antibody, V domains shown)
VH: EVQLVESGGGLVKPGGSLRLSCAASGFTFSDYYVNWIRQAPGKGLEWVACISSSGRTIHYADSVKGRFTISRDNAKNSLYLQMNSLRAEDTAFYYCARDLDKAATGRPYFDYWGQGTLVTVSS
VL: not shown
Take B8: in test [7], the binding result was “binds”.

B9: NI-307.18E12 (antibody, V domains shown)
VH: QVQLQQWGAGLLKPSETLSLTCAVYGDSFSGFFWAWIRQTPGTGLEWIGEIQHGGSPTYNPSFESRLTISTDASKSQVSLKMTSVTVTDTAIYYCARCIRGKYGSGSLQLWSQGTLVTVSS
VL: DIQLTQSPSFLSASVGDRVTITCRASQDINYHLAWYRQKPGKAPDLLIHSAHTLHIGVSSRFSGSGSGTEFTLTIHTLQPEDFATYYCHQPKTFPPTFGGGTKVDIK
In the test with JCV VP1 VLP [1], B9 gave an EC50 of 19.9 nM. In addition, the binding result in the test with BSA (Sigma-Aldrich) is reported as “no binding”.

B10: NI-307.78C3 (antibody, V domains shown)
VH: QVQLQESGPGLVKPSGTLSLTCTVSGGSISGRIWWSWVRQPPGKGLEWIGEIYHSGSTNYSPSLRGRVTISVDTSKQHFSLKMTSVTAADTAMYYCVRGELALGFDSWGQGTLVTVSS
VL: QSALTQPPSASGSPGQSVTISCTGTSSDVGGYNSVSWYQQHPRRAPKLMIYEVSKRPSGVPDRFSGSKSGNTASLTVSGLQADDEAHYYCSSYAGSNNLVFGGGTMLTVL
B10 had an EC50 in the test with JCV VP1 VLP [6] of 0.932 nM. Moreover, the binding result with BSA (Sigma-Aldrich) is listed as “no binding”.

B11: NI-307.44F6B (antibody, V domains shown)
VH: EVQLVESGGSVVRPGGSLRLACEVSGLRFDDFAMSWVRQVPGKGLEWIAGIFWNSGGTLYADSVKGRFTISRDNAENSLYLQMNSLRAEDTALYRCVRGRSHAAYYGMDVWGKGTTVTVSS
VL: EIVLTQSPLSLPVTPGEPASISCRSSQSLLHSNGYNYLDWYLQKPGQSPQLLIYLGSNRASGVPDRFSGSGSGTDFTLTISRVEAEDVGIYYCMQALQNALAFGGGTKLEIK
In the test with JCV VP1 VLP [6], B11 had a 50% effective concentration (EC50) of 0.083 nM. Also, the binding result with BSA (Sigma-Aldrich) is on record as “no binding”.

B12: NI-307.24C6 (antibody, V domains shown)
VH: QLQLQESGPGLVKPSGTLSLICVVSGSSIRSNIWWWNWVRQSPGKGLEWIGEIYHSGSTNYSPSLKSRVTMSVDNSKNQFSLKMSSVTAADTAVYFCAINTRTSISGVLYDTFDVWGQGTMVTVSS
VL: EIVLTQSPATLSLSSGERATLSCRASQSVSGYLAWYQQKPGQAPRLLIYDGSNRATGIPARFSGSGSGTDFTLTISSLEPEDFAVYYCQHRSNWPMYTFGQGTKLEIK
In turn, B12 registered a half-maximal effective concentration (EC50) with JCV VP1 VLP [6] of 2.84 nM. Also, the binding result in the test with BSA (Sigma-Aldrich) is reported as “no binding”.

B13: NI-307.19F10 (antibody, V domains shown)
VH: EVQLVESGGGLVQPGGSVSLSCAASGFTFPVYWMHWVRQAPEKGLMWVSRISPDGTIVDYAGSVKGRFTVSRDNAKNILYLQIQRLTAEDTAVYFCTKDFDVASGFWGQGTLVTVSS
VL: QSALTQPPSASGSPGQSVTISCTGSKSDVGTCHFVSWYQQHPGKVPKLVIYEGNKRPSGVPDRFSASKSGNTASLTISGLQPGDEADYYCSTCAGPNNYVFGTGTKVTVL
Regarding B13, the EC50 in the test with JCV VP1 VLP [6] amounted to 3.41 nM. Moreover, the binding result with BSA (Sigma-Aldrich) is “no binding”.

B14: NI-307.5H3 (antibody, V domains shown)
VH: QVQLQESGPGLLKPLGTLSLICDVSGDSISSSNWWSWVRQSPRKGLEWIGEIYHSGRTNYNPSLTNRVTISVDKSKNQFSLNLNSVTAADTGVYYCARWDYYYNNDYYIRGFDIWGQGTMVTVSS
VL: EIVLTQSPGILSLSPGERATLSCRASQSVDSNYLAWYQQKPGQAPRLLIYSTSTRAAGVPDRFSGSGSGTDFALTISGLEPEDFAVYYCQQWGGSPPITFGQGTRLEIK
Molecule B14 showed an EC50 with JCV VP1 VLP [6] of 1.16 nM. The binding result in the test with BSA (Sigma-Aldrich) is reported as “no binding”.

B15: NI-307.57D5 (antibody, V domains shown)
VH: EVQLVESGGGLAQPGGSLRLSCAGSGFTLSDFAMSWVRRAPGKGLEWVSSLTPSGRNSFYSDSVKGRFTISRDNWKNTLYLEMNLLRPEDTAVYYCARPGAPKNSDSKYSYVRVDFQHWGQGTLVTVSS
VL: NFMLTQPHSVSESPGRTVTISCTRSSGSIANNFVQWYQHRPGSAPTTLIYEDDQRPSGVPDRFSGSVDSFSNSASLTISGLKTEDEADYFCQSYDNHNWVFGGGTTLTVL
In the test with JCV VP1 VLP [6], B15 yielded an EC50 of 57 nM. Also, the binding result in the test with BSA (Sigma-Aldrich) was “no binding”.

(Values after US20160052996A1 (NEURIMMUNE, published 2016).)
